{
  "source": "patent US20200022997A1",
  "about": "“ORAL ANTICANCER PRODRUGS, THEIR PREPARATION METHODS AND APPLICATIONS” (Seoul National university R&DB Foundation, priority 2018, published 2020)",
  "key": {"[1]": {"details": "rat, in vivo; for Cmax: Sprague Dawley", "experimental": "(§1) Quantitative analysis was performed by measuring the fluorescence intensity in plasma, and using a standard curve to determine concentration (FIG. 9)."}, "[2]": {"test_system": "MDA-MB-231 human breast cancer cell line", "assay": "MTT cytotoxicity assay combined with radiation (4 Gy) and/or caspase inhibitor Z-VAD-FMK", "format": "cell-based", "details": "by itself, without radiation", "method": "The degree of cytotoxicity of DEVD-S-DOX was assessed using an in vitro MTT assay and combined radiation therapy in the MDA-MB-231 human breast cancer cell line. The MDA-MB-231 cell line was irradiated with radiation and the expression of caspase-3 was evaluated. Western blot (FIG. 6A) and a cellular caspase-3 activity assay (FIG. 6B) confirmed that the expression of caspase-3 increased over time.\nNext, the cancer cells were cultured in a 96-well microplate at the density of 5×10^4 cell/well in DMEM (10% FBS) medium for 24 hours, and then treated with DEVD-S-DOX or 5 μM Doxorubicin. Some of the test groups were also treated with Z-VAD-FMK, which is a caspase inhibitor. Then cells were irradiated with 4 Gy of radiation, and after 24 and 48 hours, cell viability was assessed against the controls using an MTT assay (FIG. 7). […] This confirmed that caspase-3 was expressed via radiation therapy in the cancer cells, which then activated DEVD-S-DOX and led to a synergistic cytotoxic effect."}, "in vivo": {"assay": "in vivo", "details": "Sprague Dawley, rat", "experimental": "as §1"}, "[3]": {"test_system": "human breast cancer cells MDA-MB-231", "assay": "MTT cytotoxicity assay with or without human recombinant caspase-3", "details": "read-out: IC50 cytotoxicity (MTT); pretreated with caspase-3 (500 ng/mL), 48 hours", "experimental": "The cytotoxicity of DEVD-S-DOX in human breast cancer cells MDA-MB-231 was assessed using MTT assay with or without the treatment with human recombinant caspase-3. After the cancer cells were placed on a 96-well microplate at the concentration of 5×10^4 cell/well and cultured in DMEM (10% FBS) media for 24 hours, doxorubicin, DEVD-S-DOX, and DEVD-S-DOX, pre-treated with caspase-3 (500 ng/mL), were added at concentrations ranging from 0.01-100 μM, and further cultured for 48 hours. After that, 10 μL of MTT agent were added to each well and cultured for 2 hours at 37° C. until a blue precipitate forms. At this point, 100 μL of detergent agent was added and cultured for 4 hours at room temperature. Optical density was measured in each well at 570 nm to determine cell viability."}, "[4]": {"assay": "Toxicity evaluation: hematological and biochemical parameters and histology after one month of administration", "details": "2.5 mg/kg"}, "MDA-MB-436 xenograft": {"test_system": "MDA-MB-436 xenograft", "assay": "MDA-MB-436 xenograft, daily oral dosing with or without olaparib", "format": "in vivo, female NSG SCID mouse", "details": "monotherapy, 50 mg/kg intraperitoneal, 5 days on/2 days off for two weeks", "method": "Human breast cancer MDA-MB-436 cells were transplanted into a female NSG SCID mouse, and when the cancer tumor size reached 100-150 mm^3, 3 mg/kg of DEVD-S-DCX/DCK (based on the docetaxel content), was orally administered daily. 50 mg/kg of olaparib was administered by intraperitoneal injection daily for the first five days of every week for two weeks (5 days on/2 days off). In addition, a test group without olaparib was daily orally administered 3 mg/kg DEVD-S-DCX/DCK (based on the docetaxel content)."}},
  "note": "Where two headings read alike, the source gives them in different places. *1 amine or outer side, *2 acyl side, *3 side chain or, on linkers, in order; H or OH if unused. Where a SMILES comes first, the peptide text is derived from it. [ ]: non-standard residue; d: D form. The star is where a group is joined. Doxorubicin(3'-N) = COc1cccc2c1C(=O)c1c(O)c3c(c(O)c1C2=O)C[C@@](O)(C(=O)CO)C[C@@H]3O[C@H]1C[C@H](N*)[C@H](O)[C@H](C)O1; PABC = O=C(OCc1ccc(N[*:1])cc1)[*:2]",
  "data": [
    {"smiles": "COc1cccc2c1C(=O)c1c(O)c3c(c(O)c1C2=O)C[C@@](O)(C(=O)CO)C[C@@H]3O[C@H]1C[C@H](NC(=O)OCc2ccc(NC(=O)[C@H](CC(=O)O)NC(=O)[C@@H](NC(=O)[C@H](CCC(=O)O)NC(=O)[C@H](CC(=O)O)NC(=O)CNC(=O)[C@H](CCCCN)NC(C)=O)C(C)C)cc2)[C@H](O)[C@H](C)O1", "note": "[DEVD-S-DOX, Ac-KGDEVD-PABC-Doxorubicin] (Ac-KGDEVD[PABC]-{Doxorubicin(3'-N)})", "values": [
      {"measurement": "Cmax", "setting": "[1]; iv, 1 mg/kg", "value": "3370 ± 310", "unit": "ng/mL"},
      {"measurement": "Cmax", "setting": "[1]; po, 10 mg/kg", "value": "72 ± 33", "unit": "ng/mL"},
      {"measurement": "BA (bioavailability)", "setting": "[1]; po, 10 mg/kg", "value": "negligible bioavailability"},
      {"measurement": "cytotoxicity (MTT)", "setting": "[2]", "value": "did not show any noticeable cytotoxicity"},
      {"measurement": "AUC(0-inf)", "setting": "in vivo; iv, 1 mg/kg", "value": "3370 ± 250", "unit": "ng·h/mL"},
      {"measurement": "AUC(0-t)", "setting": "in vivo; iv, 1 mg/kg", "value": "3110 ± 290", "unit": "ng·h/mL"},
      {"measurement": "MRT", "setting": "in vivo; iv, 1 mg/kg", "value": "2.01 ± 0.28", "unit": "h"},
      {"measurement": "AUC(0-inf)", "setting": "in vivo; po, 10 mg/kg", "value": "130 ± 60", "unit": "ng·h/mL"},
      {"measurement": "AUC(0-t)", "setting": "in vivo; po, 10 mg/kg", "value": "100 ± 50", "unit": "ng·h/mL"},
      {"measurement": "MRT", "setting": "in vivo; po, 10 mg/kg", "value": "1.18 ± 0.03", "unit": "h"},
      {"measurement": "Tmax", "setting": "in vivo; po, 10 mg/kg", "value": 1, "unit": "h"},
      {"measurement": "bioavailability", "setting": "in vivo; po, 10 mg/kg", "value": "0.45 ± 0.22", "unit": "%"},
      {"measurement": "IC50", "setting": "[3]", "value": 1.78, "unit": "µM"},
      {"measurement": "BASO", "setting": "[4]", "value": "1.0 ± 0.5", "unit": "%"},
      {"measurement": "MONO", "setting": "[4]; normal range 1.0-5.0", "value": "6.8 ± 1.7", "unit": "%"},
      {"measurement": "WBC", "setting": "[4]; normal range 4.0-15.0", "value": "12.8 ± 5.4", "unit": "m/mm^3"},
      {"measurement": "RBC", "setting": "[4]; normal range 6.0-11.0", "value": "7.1 ± 1.4", "unit": "M/mm^3"},
      {"measurement": "Segment", "setting": "[4]; normal range 10.0-30.0", "value": "18.2 ± 0.7", "unit": "%"},
      {"measurement": "MCH", "setting": "[4]; normal range 13.0-22.0", "value": "16.4 ± 1.8", "unit": "pg"},
      {"measurement": "Hb", "setting": "[4]; normal range 14.0-18.0", "value": "11.4 ± 1.3", "unit": "g/dL"},
      {"measurement": "MCHC", "setting": "[4]; normal range 24.0-40.0", "value": "33.4 ± 3.8", "unit": "g/dL"},
      {"measurement": "Hct", "setting": "[4]; normal range 35.0-45.0", "value": "35.1 ± 7.2", "unit": "%"},
      {"measurement": "MCV", "setting": "[4]; normal range 35.0-50.0", "value": "49.2 ± 7.2", "unit": "fL"},
      {"measurement": "Lympho", "setting": "[4]; normal range 70.0-81.0", "value": "71.0 ± 4.9", "unit": "%"},
      {"measurement": "Platelet", "setting": "[4]; normal range 600-1000", "value": "1008 ± 392", "unit": "m/mm^3"},
      {"measurement": "EOS", "setting": "[4]; normal range <10.0", "value": "2.8 ± 1.4", "unit": "%"}
    ]},
    {"smiles": "O=C(c1cc(Cc2n[nH]c(=O)c3ccccc23)ccc1F)N1CCN(C(=O)C2CC2)CC1", "note": "[olaparib]", "values": [
      {"measurement": "tumor growth suppression", "setting": "MDA-MB-436 xenograft", "value": "ineffective"}
    ]}
  ]
}
